# Data from US20230357364A1 (INTERNATIONAL AIDS VACCINE INITIATIVE, published 2023).
# Like-named read-outs stand apart in the source and are kept apart here.
# How the values were obtained:
# SARS-CoV-2 RBD (RBD-2) [1] = biological target: SARS-CoV-2 RBD (RBD-2) (SARS-CoV-2); experiment: ELISA
# SARS-CoV-1 RBD (RBD-1) = SARS-CoV-1 RBD (RBD-1) (SARS-CoV-1); experiment: ELISA
# [2] = biological target: T1, SARS-CoV-2 spike on pseudovirus or live virus (USA-WA1/2020, WT) (SARS-CoV-2, UniProt P0DTC2 14-1273); experiment: cell-based or functional assay
# [3] = biological target: T2, SARS-CoV-1 spike on pseudovirus (SARS-CoV-1, UniProt P59594 14-1255); experiment: cell-based or functional assay
# SARS-CoV-2 RBD (RBD-2) [4] = biological target: SARS-CoV-2 RBD (RBD-2) (SARS-CoV-2); experiment: SPR, Fc-captured IgG
# [5] = biological target: T1, SARS-CoV-2 spike on pseudovirus or live …; experiment: cell-based or functional assay; remark: listed apart in the source
# [6] = biological target: T2, SARS-CoV-1 spike on pseudovirus; experiment: cell-based or functional assay; remark: listed apart in the source
# SARS-CoV-2 RBD (RBD-2) [7] = biological target: SARS-CoV-2 RBD (RBD-2) (SARS-CoV-2); experiment: flow, HeLa-ACE2, mAb:RBD=2:1
# SARS-CoV-2 RBD (RBD-2) [8] = biological target: SARS-CoV-2 RBD (RBD-2) (SARS-CoV-2); experiment: flow, HeLa-ACE2, mAb:RBD=4:1
Binder,EC50 (SARS-CoV-2 RBD (RBD-2) [1]) [µg/mL],EC50 (SARS-CoV-1 RBD (RBD-1)) [µg/mL],Maximum Plateau of Neutralization [2] [%],PSV neutralization IC50 [2] [µg/mL],PSV neutralization IC50 [3] [µg/mL],Kd (SARS-CoV-2 RBD (RBD-2) [4]) [nM],koff (SARS-CoV-2 RBD (RBD-2) [4]) [s⁻¹],kon (SARS-CoV-2 RBD (RBD-2) [4]) [M⁻¹ s⁻¹],PSV neutralization IC50 [5] [µg/mL],PSV neutralization IC50 [6] [µg/mL],% inhibition of RBD binding to hACE2 (SARS-CoV-2 RBD (RBD-2) [7]) [%],MFI (RBD binding to cell surface) (SARS-CoV-2 RBD (RBD-2) [7]),% inhibition of RBD binding to hACE2 (SARS-CoV-2 RBD (RBD-2) [8]) [%],MFI (RBD binding to cell surface) (SARS-CoV-2 RBD (RBD-2) [8])
"L6.dP02F01 (antibody, V domains shown, human IgG1) VH: EVQLVESGGGLVQPGRSLRLSCAASGFTFDDYAMHWVRQAPGKGLEWVSGISWNSGSIAFAGSVKGRFTISRDNAKNSLYLQMNSLRAEDTALYYCAKDQGYSYGNYFDYWGQGTLVTVSS VL: QLVLTQPPSVSVAPGKTARITCGGNNIGSKSVYWYQQKPGQAPVLVVYDDSDRPSGIPERFSGSNSGNTATLTISRVEAGDEADYYCQVWDSSSDHPYVFGSGTKVTVL",0.013,0.021,99,1.09,5.56,,,,,,,,,
"L12.cP08A09 (antibody, V domains shown, human IgG1) VH: QVQLVQSGAEVKKPGASVKVSCKASGYIYSGYYMHWVRQAPGQGLEWMGWISPDSGGTNYAQRFQGRVTMTRDTSTTTAYMELSRLRSDDTAVYYCARGPRYSGTYFDYWGQGTLVTVSS VL: QSALTQPASVSGSPGQSITISCTGTSSDVGGYNYVSWYQQHPDKAPKLMIYDVSNRPSGVSNRFSGSKSGNTASLTISGLQAEDEADYYCSSYTSGSTQVFGGGTKLTVL",0.666,> 50,99,1.5,> 50,175,0.0707,404000,0.382,> 50,39.4,6800,49,5740
"L25.eP04C02 (antibody, V domains shown, human IgG1) VH: not shown VL: QSVLTQPASVSGSPGQSITISCTGTSSDVGGYNYVSWYQQHPGKAPKLMIYDVSNRPSGVSNRFSGSKSGNTASLTISGLQAEDEADYYCSSYTSSSTVVFGGGTKLTVL",0.026,> 50,100,0.155,> 50,,,,,,,,,
"L12.bP11C10 (antibody, V domains shown, human IgG1) VH: QVQLVQSGAEVKKPGASVKVSCKASGYIFSGYYMHWVRQAPGQGLEWMGWISPDSGGTNYAQKFQGRVTMTRDTSITTGYMELSGLRSDDTAVYYCARGPRYSGTYFDYWGQGTLVTISS VL: QSALTQPTSVSGSPGQSITISCTGTSSDVGGYNYVSWYQQHPGKAPKLIIYDVSNRPSGVSNRFSGSKSGNTASLTISGLQAEDEADYYCSSYTVSSTQVFGGGTKLTVL",3.12,> 50,100,0.494,> 50,255,0.126,493000,0.092,> 50,38.5,6900,54.1,5170
"L12.bP10G07 (antibody, V domains shown, human IgG1) VH: EVQLVQSGAEVKKPGASVKVSCKASGYIYSGYYMHWVRQAPGQGLEWMGWISPDSGGTNYAQRFQGRVTMTRDTSTTTAYMELSRLRSDDTAMYYCARGPRYSGTYFDYWGQGTLVTVSS VL: QTVVTQPASVSGSPGQSITISCTGTSSDVGGYNYVSWYQQHPDKAPKLIIYDVSNRPSGVSNRFSGSKSGNTASLTISGLQAEDEAAYYCSSYTSSSTQVFGGGTKLTVL",1.41,> 50,100,0.328,> 50,220,0.0961,436000,0.865,,36.6,7120,49.2,5710
"L12.cP09D03 (antibody, V domains shown, human IgG1) VH: QVQLVQSGAEVKKPGASVKVSCKASGYIFSGYYTHWVRQAPGQGLEWMGWISPDSGGTNYAQKFQGRVTMTRDTSITTAYVELSGLRSDDTAVYYCARGPRYSGTYFDYWGQGTLVTVSS VL: QSVLTQPASVSGSPGQSITISCTGTSSDVGGYNYVSWYQQHPGKVPKLMIYDVSNRPSGVSNRFSGSKSGNTASLTISGLQAEDEADYYCSSYTSSSAQLFGGGTKLTVL",,> 50,85,0.135,> 50,147,0.0843,575000,0.351,> 50,40.9,6640,50.1,5620
"L6.dP02A05 (antibody, V domains shown, human IgG1) VH: EVQLVQSGAEVKKPGASVKVSCMASGYTFTSYYMHWVRQAPGQGLEWMGIISPSGGGTSYAQKFQGRVTLTRDTSTSTVYMELSSLRSEDTAVYYCARWYDSTGSIDYWGQGTLVTVSS VL: DIVMTQSPSSLSASVGDRVTITCRASQGIRNDLGWYQQKPGKAPKRLIYAASSLQSGVPSRFSGSGSGTEFTLTISSLQPEDFATYYCLQHNSYPILTFGGGTKVEIK",0.025,> 50,100,0.059,> 50,,,,,,,,,
"L12.bP12E05 (antibody, V domains shown, human IgG1) VH: EVQLVQSGAEVKKPGASVKVTCKTSGYIFSGYYMHWVRQVPGQGLEWMGWISPDSGATNYAQKFQGRVTMTRDTSITTSYVELTWLKSDDTAVYYCARGPRYSGTYFDFWGQGTLVTVSS VL: QAVVTQPASVSGSPGQSLTISCTGTSSDIGGFNYVSWYQQHPGKAPKLMIFDVSKRPSGVPNRFSGSKSGNTASLTISGLQAEDEGDYYCSSYTISSAQVFGGGTKLTVL",1.17,> 50,89,0.255,> 50,183,0.143,782000,0.075,> 50,,,,
"L12.bP11A06 (antibody, V domains shown) VH: EVQLVESGGGLIQPGGSLRLSCAASGLTVSSNYMSWVRQAPGKGLEWVSVIYSGGSTFYADSVKGRFTISRDNSKNTLYLQMNSLRAEDTAVYYCARDLDVYGLDVWGQGTTVTVSS VL: DIVMTQSPSFLSASVGDRVTITCRASQGISSYLAWYQQKPGKAPKLLIYAASTLQSGVPSRFSGSGSGTEFTLTISSLQPEDFATYYCQQLNSYPPKFTFGPGTKVEIK",,,100,0.019,> 50,,,,,> 50,,,,
"L25.dP06E11 (antibody, V domains shown, human IgG1) VH: QVQLVESGGGLVQPGRSLRLSCAASGFTFDDYAMHWVRQAPGKGLEWVSGISWNSGSIGYADSVKGRFTISRDNAKNSLYLQMNGLRAEDTALYYCAKVPQRSRYLVGWFDPWGQGTLVTVSS VL: not shown",0.016,0.017,55,34.6,> 50,,,,,,,,,
